Assay results from PMC10904049.
Values belong to the substance of their own block, whether it stands above or below them.

Tests used:
[1] = molecular target: Cerulean-tagged CaVβ2B subunit (Cerulean-WT β2B); assay: flow cytometric FRET assay; conditions: HEK293 cells, read off a plot
CaVβ4 = CaVβ4 (UniProt D4A055); assay: ITC; conditions: cited from earlier work
[2] = FSK (10 µM) + Cal (100 nM), parent: est. 100
[3] = no FSK, no Cal, parent: est. 7.8

Substance: Venus-tagged WT Rad (from UniProt O88667) S25A; S38A; S272A; S300A
Kd ([1]; Cal (100 nM), no FSK): 14 ×10^3 | Kd [1, 2]: 13 ×10^3 | Kd ([1]; FSK (10 µM), no Cal): 11 ×10^3 | Kd [1, 3]: 11 ×10^3

Substance: Venus-tagged WT Rad (from UniProt O88667) S256D; S272D; S289D; S298D; S300D; S305D
Kd ([1]; no FSK/Cal, parent: est. 7.8): 83 ×10^3

Substance: Venus-tagged WT Rad (from UniProt O88667) S25A; S38A
Kd [1, 2]: 44 ×10^3 | Kd [1, 3]: 7.5 ×10^3

Substance: Rem2 (from UniProt Q9WTY2)
Kd (CaVβ4): 156 µM

Substance: Venus-tagged WT Rad (from UniProt O88667) S272D; S300D
Kd ([1]; no FSK/Cal, parent: est. 7.8): 18 ×10^3

Substance: Venus-Rad-CAAX (WT Rad with a C-terminal CAAX motif) (from UniProt O88667) S272D; S300D
Kd ([1]; no FSK/Cal, parent: est. 9.3): 12 ×10^3

Substance: Venus-Rad-CAAX (WT Rad with a C-terminal CAAX motif) (from UniProt O88667) R208A; L235A
Kd [1]: 140 ×10^3

Substance: Venus-Rad-CAAX (WT Rad with a C-terminal CAAX motif) (from UniProt O88667) S256D; S272D; S289D; S298D; S300D; S305D
Kd ([1]; no FSK/Cal, parent: est. 9.3): 12 ×10^3

Substance: Venus-tagged WT Rad (from UniProt O88667) S272A; S300A
Kd [1, 2]: 17 ×10^3 | Kd [1, 3]: 6.3 ×10^3

More lines, now with the values ahead:

Kd ([1]; no FSK/Cal, parent: est. 7.8): 5.7 ×10^3
Substance: Venus-tagged WT Rad (from UniProt O88667) S25D; T26D; S38D; M39D

Kd ([1]; + FSK + Cal): 21 ×10^3 | Kd ([1]; no FSK + Cal): 13 ×10^3
Substance: Venus-Rad-CAAX (WT Rad with a C-terminal CAAX motif) (from UniProt O88667) F280A; F294A

Kd ([1]; parent: est. 8): 140 ×10^3
Substance: Venus-tagged WT Rad (from UniProt O88667) R208A; L235A

Kd ([1]; no FSK/Cal, parent: est. 9.3): 11 ×10^3
Substance: Venus-Rad-CAAX (WT Rad with a C-terminal CAAX motif) (from UniProt O88667) S272D; S289D; S298D; S300D

Kd ([1]; + FSK + Cal, parent: est. 100): 190 ×10^3 | Kd ([1]; no FSK + Cal, parent: est. 8): 41 ×10^3
Substance: Venus-tagged WT Rad (from UniProt O88667) F280A; F294A

Kd ([1]; no FSK/Cal, parent: est. 7.8): 9.2 ×10^3
Substance: Venus-tagged WT Rad (from UniProt O88667) S25D; S38D

Kd ([1]; no FSK/Cal, parent: est. 7.8): 18 ×10^3
Substance: Venus-tagged WT Rad (from UniProt O88667) S25D; S38D; S272D; S300D

Kd ([1]; no FSK/Cal, parent: est. 7.8): 57 ×10^3
Substance: Venus-tagged WT Rad (from UniProt O88667) S272D; S289D; S298D; S300D
